This is an account of results in article PMC4975651.

What all share (test): ITC
Background: In ITC the heat of successive injections is recorded.

One test addresses H3K4me0 (1-25aa) peptide (UniProt P68431).
For test [1], the target named is H3K4me0 peptide (ITC, Figures 5D and 5E) (UniProt P68431).
In the next test the target is H3K4me0K14ac peptide.

ZMYND8-PBP F109D (domain or fragment) displayed a fold increase of binding activity against ZMYND8-PBP with H3K4me0 (1-25aa) peptide of 11 fold.
In the case of “ZMYND8-PBP (93-426aa) (domain or fragment)”, the Kd (commonly a measure of binding affinity in units of concentration) in test [1] stood at 7.2 µM; with H3K4me0K14ac peptide, 1 µM.
On to ZMYND8-PB (ITC) (domain or fragment), for which, in test [1], the Kd was found to be 15 µM.
